Results: patent publication US20260022144A1, “ANALGESIC POLYPEPTIDE” (Shanghai Puyou Biomedical Co., Ltd., priority 2022, published 2026)

Experiments:
[1] = test system: eye pain (ocular neuropathic pain) model induced by benzalkonium chloride in mice; assay: Eye pain model induced by benzalkonium chloride in mice, scratching behavior test; assay type: in vivo, mouse; details: eye drops TID, 30 μg/ml, 10 μL (0.3 μg/eye/each time), after 2 days of treatment, 2M NaCl challenge, vs model group
Description: C57BL/6JNifdc mice were used in the experiment. Briefly, each of the mice was fixed with one hand, with one eye prop opened with the other hand (and fixed with another lab technician). The modeling drug, i.e., 0.1% benzalkonium chloride was dripped into one eye (twice a day (9:00, 17:00), 10 μL each time) and maintained for 30 seconds. The operation was repeated for six days.
In order to evaluate the pathological changes at the front of the mice's eyes, slit lamp photos were taken on the third day since the beginning of modeling. According to the photographic results, the mice's eyes were scored from three viewing angles, including corneal opacity (0: clear, 1: visible opacity, 2: difficult to find, 3: pupil invisible), conjunctival edema (0: absent, 1: slight edema, 2: edema, 3: severe edema) and congestion (0: absent, 1: slight congestion, 2: congestion, 3: severe congestion, 4: hemorrhage), to access and evaluate the damages at the front of the mice's eyes. The mice were then randomized into groups. […]
Scratching behavior test: The eyes were administered for two consecutive days. […] After acting for 5 seconds, the mice were released back into the cage, and the numbers of wipes over the eyes within 30 seconds were counted.

SNL pain model in rats = assay: SNL (spinal nerve ligation) pain model in rats, mechanical allodynia test; assay type: in vivo, rat; details: SD rats, 1 h after administration
Description: A summary of the method for inducing pain model in rats by means of spinal nerve ligation is provided hereinafter. Briefly, male SD rats were anesthetized with Zoletil R 50+xylazine hydrochloride (20 mg/kg+8 mg/kg, intraperitoneal injection). The surgical areas on the waist regions of the animals were shaved, and the skin was disinfected with iodophor and 70% v/v ethanol for three times. The left spinal nerves L5 and L6 of the animals were isolated, tightly ligated with 6-0 silk suture, and the wounds were sutured.
On the 11th day post operation, the animals were acclimated to the experimental environment, 15 minutes/day, for 3 consecutive days.
Briefly, after SNL modeling, 24 animals were randomly divided into 3 groups (Groups 2, 3 and 4, N=8/group). Group 1 (a Sham group, for which the 10 animals received essentially the same operation procedure as other groups but their left spinal nerves L5 and L6 were neither isolated nor ligated) was used as the control group. The test articles were administrated to the animals according to the protocol shown in Table 5, and mechanical allodynia tests were respectively performed 1h after administration according to the method as recited in Example 1.
Briefly, after SNL modeling, 30 animals were randomly divided into 3 groups (Group 1, N=6/group; Groups 2 and 3, N=12/group). Various polypeptides of the present disclosure were administered to the animals from Groups 2 and 3, and the animals were subjected to mechanical allodynia tests 1 h after administration according to the method as recited in Example 1.

B1: SEQ ID NO: 29: exemplary polypeptide of the present disclosure; artificial polypeptide of formula (I) X-Y (protein)
chain: SEKKQPVDLGLLEEDDEFEEFPAEDWAGLDEDEDAHVWEDNWDDDNVEDDFSNQLRATVLLMILVAETPYGAYVLHQKGRMASAFLAA
- numbers of wipes over the eyes within 30 seconds [1]: significantly decreased numbers of wiping over the eyes (P<0.01)
- analgetic effect (50% PWT) (SNL pain model in rats; i.v. single administration (SEQ ID NO: 29 30 and 60 mg/kg; SEQ ID NO: 90 and 93 60 mg/kg)): certain analgetic effect
- analgetic effect of 60 mg/kg compared with 30 mg/kg (50% PWT) (SNL pain model in rats; i.v. single administration): much higher than that produced from the dose of 30 mg SEQ ID NO: 29/kg
